Measured values reported in article PMC7353425.

Target: 3 × LPG (truncated derivative of linker-protein G with three linker sequence repeats) (Streptococcus strain G148)
Assay: QCM-D; 3 × LPG (3.27–654 nM) adsorbed on SiO2-coated sensor, free sites blocked with 1 mg/mL BSA, trastuzumab injected at 1 µg/mL; 1 × PBS pH 7.4, 22 °C, flow 150 µL/min; mass from the Voigt viscoelastic model

Question: How did the mass deposited for bound trastuzumab turn out when “trastuzumab (humanized anti-HER2 monoclonal antibody)” was run?
Answer: Its mass deposited for bound trastuzumab is 1020 ng/cm^2.
